The target in assay [1] is N-terminal GST-tagged GlyRS (human) (UniProt P41250). Briefly: biolayer interferometry (Octet), GlyRS immobilized. A general note: In BLI a coated tip is dipped into the sample, and binding shifts an interference pattern.
Assay [2] has the same target. In words: biolayer interferometry (Octet), GlyRS immobilized, 30°C.

Chain of N-terminal GST-tagged GlyRS (human) (P41250 55-739): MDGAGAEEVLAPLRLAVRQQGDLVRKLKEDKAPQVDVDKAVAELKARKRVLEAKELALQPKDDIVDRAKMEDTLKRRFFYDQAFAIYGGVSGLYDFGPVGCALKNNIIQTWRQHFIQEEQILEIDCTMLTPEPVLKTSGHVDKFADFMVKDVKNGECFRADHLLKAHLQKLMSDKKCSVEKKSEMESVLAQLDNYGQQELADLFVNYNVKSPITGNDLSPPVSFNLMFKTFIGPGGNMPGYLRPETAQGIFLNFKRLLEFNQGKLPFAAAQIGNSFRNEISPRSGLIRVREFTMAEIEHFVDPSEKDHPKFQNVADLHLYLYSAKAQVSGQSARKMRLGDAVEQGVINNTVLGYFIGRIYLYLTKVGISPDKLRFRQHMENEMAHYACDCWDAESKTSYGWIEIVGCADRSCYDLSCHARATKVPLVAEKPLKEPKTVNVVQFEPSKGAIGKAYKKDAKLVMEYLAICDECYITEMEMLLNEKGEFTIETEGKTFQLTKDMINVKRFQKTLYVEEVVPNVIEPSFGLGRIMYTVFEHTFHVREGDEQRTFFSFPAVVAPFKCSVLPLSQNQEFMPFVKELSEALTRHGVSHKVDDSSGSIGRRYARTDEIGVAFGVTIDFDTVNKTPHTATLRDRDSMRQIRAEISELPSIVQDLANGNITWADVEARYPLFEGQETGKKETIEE

For “Ubc12^N8: NEDD8-conjugated Ubc12 (C111S, stable ester linkage to His-SUMO-tagged NEDD8) (from UniProt P61081 1-183; Q15843 1-76)”, in assay [1], the fold stronger than the Kd for NEDD8 alone worked out at 30 fold and the fold stronger than the Kd for Ubc12 alone stood at 100 fold. Further, in assay [2], the Kd (in general, the free concentration of one partner at which half of the binding sites on the other are occupied at equilibrium, for simple one-to-one binding) came to 4.09 nM.
